The values that follow come from patent publication US12099068B2, “Biomarkers for graft-versus-host disease” (Incyte Corporation, priority 2018, dated 2024).

B1: SIT1 (protein, UniProt Q9Y3P8 25-196, looked up)
Signaling …: DNCTDLLALGIPSITQAWGLWVLLGAVTLLFLISLAAHLSQWTRGRSRSHPGQGRSGESVEEVPLYGNLHYLQTGRLSQDPEPDQQDPTLGGPARAAEEVMCYTSLQLRPPQGRIPGPGTPVKYSEVVLDSEPKSQASGPEPELYASVCAQTRRARASFPDQAYANSQPAAS
B2: DDX58 (protein, UniProt O95786 1-925, looked up)
Antiviral innate immune …: MTTEQRRSLQAFQDYIRKTLDPTYILSYMAPWFREEEVQYIQAEKNNKGPMEAATLFLKFLLELQEEGWFRGFLDALDHAGYSGLYEAIESWDFKKIEKLEEYRLLLKRLQPEFKTRIIPTDIISDLSECLINQECEEILQICSTKGMMAGAEKLVECLLRSDKENWPKTLKLALEKERNKFSELWIVEKGIKDVETEDLEDKMETSDIQIFYQEDPECQNLSENSCPPSEVSDTNLYSPFKPRNYQLELALPAMKGKNTIICAPTGCGKTFVSLLICEHHLKKFPQGQKGKVVFFANQIPVYEQQKSVFSKYFERHGYRVTGISGATAENVPVEQIVENNDIIILTPQILVNNLKKGTIPSLSIFTLMIFDECHNTSKQHPYNMIMFNYLDQKLGGSSGPLPQVIGLTASVGVGDAKNTDEALDYICKLCASLDASVIATVKHNLEELEQVVYKPQKFFRKVESRISDKFKYIIAQLMRDTESLAKRICKDLENLSQIQNREFGTQKYEQWIVTVQKACMVFQMPDKDEESRICKALFLYTSHLRKYNDALIISEHARMKDALDYLKDFFSNVRAAGFDEIEQDLTQRFEEKLQELESVSRDPSNENPKLEDLCFILQEEYHLNPETITILFVKTRALVDALKNWIEGNPKLSFLKPGILTGRGKTNQNTGMTLPAQKCILDAFKASGDHNILIATSVADEGIDIAQCNLVILYEYVGNVIKMIQTRGRGRARGSKCFLLTSNAGVIEKEQINMYKEKMMNDSILRLQTWDEAVFREKILHIQTHEKFIRDSQEKPKPVPDKENKKLLCRKCKALACYTADVRVIEECHYTVLGDAFKECFVSRPHPKPKQFSSFEKRAKIFCARQNCSHDWGIHVKYKTFEIPVIKIESFVVEDIATGVQTLYSKWKDFHFEKIPFDPAEMSK
B3: ROBO2 (protein, UniProt Q9HCK4 22-1378, looked up)
Roundabout homolog 2: SRLRQEDFPPRIVEHPSDVIVSKGEPTTLNCKAEGRPTPTIEWYKDGERVETDKDDPRSHRMLLPSGSLFFLRIVHGRRSKPDEGSYVCVARNYLGEAVSRNASLEVALLRDDFRQNPTDVVVAAGEPAILECQPPRGHPEPTIYWKKDKVRIDDKEERISIRGGKLMISNTRKSDAGMYTCVGTNMVGERDSDPAELTVFERPTFLRRPINQVVLEEEAVEFRCQVQGDPQPTVRWKKDDADLPRGRYDIKDDYTLRIKKTMSTDEGTYMCIAENRVGKMEASATLTVRAPPQFVVRPRDQIVAQGRTVTFPCETKGNPQPAVFWQKEGSQNLLFPNQPQQPNSRCSVSPTGDLTITNIQRSDAGYYICQALTVAGSILAKAQLEVTDVLTDRPPPIILQGPANQTLAVDGTALLKCKATGDPLPVISWLKEGFTFPGRDPRATIQEQGTLQIKNLRISDTGTYTCVATSSSGETSWSAVLDVTESGATISKNYDLSDLPGPPSKPQVTDVTKNSVTLSWQPGTPGTLPASAYIIEAFSQSVSNSWQTVANHVKTTLYTVRGLRPNTIYLFMVRAINPQGLSDPSPMSDPVRTQDISPPAQGVDHRQVQKELGDVLVRLHNPVVLTPTTVQVTWTVDRQPQFIQGYRVMYRQTSGLQATSSWQNLDAKVPTERSAVLVNLKKGVTYEIKVRPYFNEFQGMDSESKTVRTTEEAPSAPPQSVTVLTVGSYNSTSISVSWDPPPPDHQNGIIQEYKIWCLGNETRFHINKTVDAAIRSVIIGGLFPGIQYRVEVAASTSAGVGVKSEPQPIIIGRRNEVVITENNNSITEQITDVVKQPAFIAGIGGACWVILMGFSIWLYWRRKKRKGLSNYAVTFQRGDGGLMSNGSRPGLLNAGDPSYPWLADSWPATSLPVNNSNSGPNEIGNFGRGDVLPPVPGQGDKTATMLSDGAIYSSIDFTTKTSYNSSSQITQATPYATTQILHSNSIHELAVDLPDPQWKSSIQQKTDLMGFGYSLPDQNKGNNGGKGGKKKKNKNSSKPQKNNGSTWANVPLPPPPVQPLPGTELEHYAVEQQENGYDSDSWCPPLPVQTYLHQGLEDELEEDDDRVPTPPVRGVASSPAISFGQQSTATLTPSPREEMQPMLQAHLDELTRAYQFDIAKQTWHIQSNNQPPQPPVPPLGYVSGALISDLETDVADDDADDEEEALEIPRPLRALDQTPGSSMDNLDSSVTGKAFTSSQRPRPTSPFSTDSNTSAALSQSQRPRPTKKHKGGRMDQQPALPHRREGMTDEEALVPYSKPSFPSPGGHSSSGTASSKGSTGPRKTEVLRAGHQRNASDLLDIGYMGSNSQGQFTGEL
B4: ICAM3 (protein, UniProt P32942 30-547, looked up)
Intercellular adhesion …: QEFLLRVEPQNPVLSAGGSLFVNCSTDCPSSEKIALETSLSKELVASGMGWAAFNLSNVTGNSRILCSVYCNGSQITGSSNITVYRLPERVELAPLPPWQPVGQNFTLRCQVEDGSPRTSLTVVLLRWEEELSRQPAVEEPAEVTATVLASRDDHGAPFSCRTELDMQPQGLGLFVNTSAPRQLRTFVLPVTPPRLVAPRFLEVETSWPVDCTLDGLFPASEAQVYLALGDQMLNATVMNHGDTLTATATATARADQEGAREIVCNVTLGGERREARENLTVFSFLGPIVNLSEPTAHEGSTVTVSCMAGARVQVTLDGVPAAAPGQPAQLQLNATESDDGRSFFCSATLEVDGEFLHRNSSVQLRVLYGPKIDRATCPQHLKWKDKTRHVLQCQARGNPYPELRCLKEGSSREVPVGIPFFVNVTHNGTYQCQASSSRGKYTLVVVMDIEAGSSHFVPVFVAVLLTLGVVTIVLALMYVFREHQRSGSYHVREESTYLPLTSMQPTEAMGEEPSRAE
B5: SOST (protein, UniProt Q9BQB4 24-213, looked up)
Sclerostin: QGWQAFKNDATEIIPELGEYPEPPPELENNKTMNRAENGGRPPHHPFETKDVSEYSCRELHFTRYVTDGPCRSAKPVTELVCSGQCGPARLLPNAIGRGKWWRPSGPDFRCIPDRYRAQRVQLLCPGGEAPRARKVRLVASCKCKRLTRFHNQSELKDFGTEAARPQKGRKPRPRARSAKANQAELENAY
B6: ANGPTL3 (protein, UniProt Q9Y5C1 17-460, looked up)
Angiopoietin-related protein 3: SRIDQDNSSFDSLSPEPKSRFAMLDDVKILANGLLQLGHGLKDFVHKTKGQINDIFQKLNIFDQSFYDLSLQTSEIKEEEKELRRTTYKLQVKNEEVKNMSLELNSKLESLLEEKILLQQKVKYLEEQLTNLIQNQPETPEHPEVTSLKTFVEKQDNSIKDLLQTVEDQYKQLNQQHSQIKEIENQLRRTSIQEPTEISLSSKPRAPRTTPFLQLNEIRNVKHDGIPAECTTIYNRGEHTSGMYAIRPSNSQVFHVYCDVISGSPWTLIQHRIDGSQNFNETWENYKYGFGRLDGEFWLGLEKIYSIVKQSNYVLRIELEDWKDNKHYIEYSFYLGNHETNYTLHLVAITGNVPNAIPENKDLVFSTWDHKAKGHFNCPEGYSGGWWWHDECGENNLNGKYNKPRAKSKPERRRGLSWKSQNGRLYSIKSTKMLIHPTDSESFE
B7: B4GAT1 (protein, UniProt O43505 1-415, looked up)
Beta-1,4-glucuronyltransferase …: MQMSYAIRCAFYQLLLAALMLVAMLQLLYLSLLSGLHGQEEQDQYFEFFPPSPRSVDQVKAQLRTALASGGVLDASGDYRVYRGLLKTTMDPNDVILATHASVDNLLHLSGLLERWEGPLSVSVFAATKEEAQLATVLAYALSSHCPDMRARVAMHLVCPSRYEAAVPDPREPGEFALLRSCQEVFDKLARVAQPGINYALGTNVSYPNNLLRNLAREGANYALVIDVDMVPSEGLWRGLREMLDQSNQWGGTALVVPAFEIRRARRMPMNKNELVQLYQVGEVRPFYYGLCTPCQAPTNYSRWVNLPEESLLRPAYVVPWQDPWEPFYVAGGKVPTFDERFRQYGFNRISQACELHVAGFDFEVLNEGFLVHKGFKEALKFHPQKEAENQHNKILYRQFKQELKAKYPNSPRRC

For this experiment, the system named is plasma proteins. The experiment in a line: Plasma proteins modulated between baseline and day 28 in responders (CR, VGPR, PR; n = 19), Example 6 (Table 13). The class given is in vivo, human. Conditions: plasma protein (OLINK NPX); responders (CR, VGPR, PR; n = 19); itacitinib 200 mg or 300 mg QD with corticosteroids; day 28 vs baseline. In a few lines:
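Longitudinal comparison, day 28 versus baseline, with steroid-naive (N=10) and steroid-refractory (N=18) patients combined. Proteins measured by OLINK proximity extension, log2 normalized protein expression. Differences tested by t tests, ANOVA, Pearson correlation, P<0.05 significant.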
On to B1, for which the “Fold Change, Decreased Expression from Baseline to Day 28” value is recorded as −1.5501. Same read-out and setting: to B2 belongs −1.6381.

Take B3: the “Fold Change, Increased Expression from Baseline to Day 28” value came to 1.249.

In the case of B4, the “Fold Change, Decreased Expression from Baseline to Day 28” value is on record as −1.464. Still for that read-out and setting: under B5 stands −1.3214. On to B6, for which the “Fold Change, Increased Expression from Baseline to Day 28” value worked out at 1.2673. Still for that read-out and setting: under B7 stands 1.2795.
